Columns and labels:
[1] = target: HCN1, hyperpolarization-activated cyclic nucleotide-gated channel pore-forming subunit 1, endogenous in CA1 pyramidal neurons of TRIP8b KO mice (mouse) (UniProt O88704); experiment: cell-based or functional assay
[2] = target: HCN channels (mediating Ih) in CA1 pyramidal neurons of TRIP8b KO mice; experiment: cell-based or functional assay

Sequence of UniProt O88704 (O88704 whole entry): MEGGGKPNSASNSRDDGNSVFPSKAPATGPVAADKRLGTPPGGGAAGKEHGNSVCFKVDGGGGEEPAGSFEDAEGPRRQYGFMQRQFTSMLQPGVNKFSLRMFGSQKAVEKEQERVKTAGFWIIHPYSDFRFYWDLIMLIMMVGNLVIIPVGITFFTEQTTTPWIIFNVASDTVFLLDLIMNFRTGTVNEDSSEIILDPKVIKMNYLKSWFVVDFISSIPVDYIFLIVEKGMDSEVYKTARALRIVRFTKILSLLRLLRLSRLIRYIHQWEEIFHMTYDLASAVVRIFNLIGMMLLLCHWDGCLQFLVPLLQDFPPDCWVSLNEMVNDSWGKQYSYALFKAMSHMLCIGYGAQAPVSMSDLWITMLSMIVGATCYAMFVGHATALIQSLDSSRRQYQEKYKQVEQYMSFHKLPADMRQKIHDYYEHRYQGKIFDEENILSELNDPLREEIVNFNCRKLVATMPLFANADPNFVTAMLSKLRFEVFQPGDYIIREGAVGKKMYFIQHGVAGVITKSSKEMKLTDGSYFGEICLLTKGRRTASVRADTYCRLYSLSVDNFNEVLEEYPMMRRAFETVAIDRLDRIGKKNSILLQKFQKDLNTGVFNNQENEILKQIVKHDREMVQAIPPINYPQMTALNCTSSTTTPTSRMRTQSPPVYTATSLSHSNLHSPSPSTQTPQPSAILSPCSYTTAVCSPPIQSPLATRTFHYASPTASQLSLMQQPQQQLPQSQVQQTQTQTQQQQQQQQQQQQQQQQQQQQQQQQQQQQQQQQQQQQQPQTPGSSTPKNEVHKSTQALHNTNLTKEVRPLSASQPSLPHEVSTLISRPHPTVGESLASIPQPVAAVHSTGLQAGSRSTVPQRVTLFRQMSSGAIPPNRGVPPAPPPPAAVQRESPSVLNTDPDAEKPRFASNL

Row | HCN1 staining in the SLM layer of CA1, injected hemisphere scaled by contralateral hemisphere (immunohistochemistry) (fold of uninjected hemisphere) [1] | Ih amplitude, voltage clamp, TRIP8b KO mice [2] | sag ratio, somatic whole cell recordings, TRIP8b KO mice [2] | HCN1 staining in the SLM of CA1, injected hemisphere relative to uninjected hemisphere (immunohistochemistry) (fold of uninjected hemisphere) [1] | Ih amplitude, somatic voltage clamp recordings, TRIP8b KO mice [2] | sag ratio (ΔVmax/ΔVsteady-state), whole cell recordings from eGFP positive CA1 pyramidal neurons of TRIP8b KO mice [2] | Substance
1 | 0.78 | 0.282 pA/pF | 1.11 |  |  |  | TRIP8b(1a-4)(TPR3-N13A), expressed from AAV-TRIP8b(N13A)
2 | 0.98 | 0.27 pA/pF | 1.09 |  |  |  | TRIP8b(1a-4)(Δ58), expressed from AAV-TRIP8b(Δ58)
3 | 0.99 |  |  |  |  |  | TRIP8b(Δ58/N13A) double mutant, expressed from AAV-TRIP8b(Δ58/N13A)
4 |  |  |  | 1.52 | 0.68 pA/pF | 1.27 | TRIP8b(1a-4), tetratricopeptide repeat-containing Rab8b interacting protein, isoform comprised of exons 1a, 4 and 5-16, wild type, expressed from AAV-TRIP8b-IRES-eGFP
